We go through 39 sequences from the supplement of paper PMC7877785.

This series is described as follows: self-splicing fitness, log relative to wild type (ln ratio); higher = more splicing; Tetrahymena group I intron in knt gene, E. coli kanamycin selection, DiMSum; sequences stand for … in CUCUCU…GGAGGGAAAAGUUAUCAGGCAUGCACCUGGUAGCUAGUCUUUAAACCAAUAGAUUGCAUCGGUUUAAAAGGCAAGACCGUCAAAUUGCGGGAAAGGGGUCAACAGCCGUUCAGUACCAAGUCUCAGGGGAAACUUUGAGAUGGCCUUGCAAAGGGUAUGGUAAUAAGCUGACGGACAUGGUCCUAACCACGCAGCCAAGUCCUAAGUCAACAGAUCUUCUGUUGAUAUGGAUGCAGUUCACAGACUAAAUGUCGGUCGGGGAAGAUGUAUUCUUCUCAUAAGAUAUAGUCGGACCUCUCCUUAAUGGGAGCUAGCGGAUGAAGUGAUGCAACACUGGAGCCGCUGGGAACUAAUUUGUAUGCGAAAGUAUAUUGAUUAGUUUUGGAGUACUCGUGGUCG
In outline: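 A randomised library covering all eight P1ex-region intron nucleotides was built with the intron in the knt kanamycin-resistance gene on pET-22b(+) and held in E. coli BL21(DE3). Cells were grown overnight at 37°C or 30°C on LB agar, with or without 25 μg/mL kanamycin, plus 100 μg/mL carbenicillin, 50 μM IPTG and 0.2% rhamnose, and pooled colonies were amplicon-sequenced on an Illumina HiSeq 2500. DiMSum fitness is the error-weighted combination of wild-type-normalised replicate fold changes, kanamycin versus none.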

± gives the uncertainty stated by the source.

Turning to UAUCAGCAAUAUUACGCGCC, the “self-splicing fitness (ln)” value reads like this: (30 °C) -1.34 ± 0.18; (37 °C) -0.193 ± 0.26.
On to UUGUAGCAAUAUUACGCAGA, for which the “self-splicing fitness (ln)” value by setting is: (30 °C) -2.2 ± 0.35; (37 °C) -0.763 ± 0.28.
The matching figures for ACCAAGCAAUAUUACGCCAU: -0.983 ± 0.12 and -1.56 ± 0.16.
As for GAGUAGCAAUAUUACGCACU, the “self-splicing fitness (ln)” value was -3.18 ± 0.19 (30 °C) and -1.34 ± 0.36 (37 °C).
In the case of UACAAGCAAUAUUACGGCCA, the “self-splicing fitness (ln)” value by setting is: (30 °C) -0.557 ± 0.14; (37 °C) 0.111 ± 0.16.
The corresponding values for UUUCAGCAAUAUUACGCAAA are -2.1 ± 0.15 and -0.378 ± 0.13.
As for CGGAAGCAAUAUUACGUGUC, the “self-splicing fitness (ln)” value is -3.44 ± 0.28 (30 °C) and -1.94 ± 0.31 (37 °C).
With GAACAGCAAUAUUACGUUUG, the “self-splicing fitness (ln)” value is, setting by setting: (30 °C) -2.2 ± 0.067; (37 °C) -0.632 ± 0.075.
ACGUAGCAAUAUUACGUUGA: the “self-splicing fitness (ln)” value was -3.4 ± 0.29 (30 °C) and -2.78 ± 0.28 (37 °C).
The matching figures for CUGAAGCAAUAUUACGGAUA: -4.19 ± 0.22 and -1.19 ± 0.18.
For the sequence AGGCAGCAAUAUUACGCAGA, the “self-splicing fitness (ln)” value reads like this: (30 °C) -1.37 ± 0.12; (37 °C) -0.754 ± 0.11.
In the case of CACUAGCAAUAUUACGUUUU, the “self-splicing fitness (ln)” value (30 °C) is -2.97 ± 0.12 and the “self-splicing fitness (ln)” value (37 °C) was -2.4 ± 0.13.
With UGGGAGCAAUAUUACGGUCU, the “self-splicing fitness (ln)” value was -4.3 ± 0.32 (30 °C) and -2.09 ± 0.22 (37 °C).
In the case of CUAUAGCAAUAUUACGGUUG, the “self-splicing fitness (ln)” value is -0.804 ± 0.088 (30 °C) and 0.0411 ± 0.1 (37 °C).
Take AAUUAGCAAUAUUACGCAGC: the “self-splicing fitness (ln)” value reads like this: (30 °C) -3.15 ± 0.48; (37 °C) -2.21 ± 0.27.
In the case of GUCCAGCAAUAUUACGAGAC, the “self-splicing fitness (ln)” value by setting is: (30 °C) -3.46 ± 0.23; (37 °C) -1.82 ± 0.23.
The corresponding values for GCCCAGCAAUAUUACGCUCU are 0.00415 ± 0.05 and 0.138 ± 0.066.
Take GAUUAGCAAUAUUACGUAAU: the “self-splicing fitness (ln)” value is, setting by setting: (30 °C) -3.06 ± 0.18; (37 °C) -0.741 ± 0.12.
For AAGUAGCAAUAUUACGGCUG, the “self-splicing fitness (ln)” value is -0.444 ± 0.083 (30 °C) and -0.731 ± 0.13 (37 °C).
On to CUCGAGCAAUAUUACGCGGG, for which, where the note is “30 °C”, the “self-splicing fitness (ln)” value is -3.9 ± 0.39.
Still for that read-out and setting: in the case of AUUGAGCAAUAUUACGGUAG it was -3.32 ± 0.24.
As to UAUGAGCAAUAUUACGGCGU, the “self-splicing fitness (ln)” value (30 °C) was -3.11 ± 0.21 and the “self-splicing fitness (ln)” value (37 °C) is -2.38 ± 0.29.
The matching figures for CAGCAGCAAUAUUACGAGCA: -2.5 ± 0.12 and -1.04 ± 0.093.
The matching figures for AGUCAGCAAUAUUACGACAC: -0.0897 ± 0.065 and -0.358 ± 0.084.
Regarding UCAGAGCAAUAUUACGCCAU, the “self-splicing fitness (ln)” value (37 °C) was -1.91 ± 0.29.
Regarding GUGUAGCAAUAUUACGGGGA, the “self-splicing fitness (ln)” value (30 °C) was -1.9 ± 0.28 and the “self-splicing fitness (ln)” value (37 °C) is -2.41 ± 0.25.
The corresponding values for UAUCAGCAAUAUUACGAUGG are -0.913 ± 0.062 and 0.0535 ± 0.083.
The matching figures for GCCUAGCAAUAUUACGGGGU: -3.83 ± 0.19 and -2.19 ± 0.19.
Take GAGCAGCAAUAUUACGUGGG: the “self-splicing fitness (ln)” value runs as follows: (30 °C) -3.13 ± 0.24; (37 °C) -3.03 ± 0.27.
Turning to GGAUAGCAAUAUUACGAGUU, the “self-splicing fitness (ln)” value reads like this: (30 °C) -1.59 ± 0.1; (37 °C) -1.64 ± 0.14.
The matching figures for GCAUAGCAAUAUUACGGUGA: -0.491 ± 0.11 and 0.678 ± 0.13.
The matching figures for AACCAGCAAUAUUACGCAAA: -0.829 ± 0.1 and -0.805 ± 0.11.
As to UAAGAGCAAUAUUACGAAAU, the “self-splicing fitness (ln)” value (37 °C) was -1.61 ± 0.32.
For the sequence CGUGAGCAAUAUUACGAUCG, the “self-splicing fitness (ln)” value runs as follows: (30 °C) -3.02 ± 0.27; (37 °C) 0.475 ± 0.25.
In the case of UGCAAGCAAUAUUACGAAGU, for the setting “30 °C”, the “self-splicing fitness (ln)” value is -3 ± 0.49.
Consider AGGAAGCAAUAUUACGUCUA, for which the “self-splicing fitness (ln)” value is, setting by setting: (30 °C) -0.335 ± 0.092; (37 °C) -0.143 ± 0.1.
Turning to GCUAAGCAAUAUUACGUCUC, the “self-splicing fitness (ln)” value is, setting by setting: (30 °C) -0.757 ± 0.066; (37 °C) -0.164 ± 0.072.
The matching figures for CCCGAGCAAUAUUACGCAUG: -3.7 ± 0.15 and -2.64 ± 0.15.
On to UAGCAGCAAUAUUACGGAUA, for which the “self-splicing fitness (ln)” value is -0.783 ± 0.081 (30 °C) and -0.203 ± 0.1 (37 °C).
